Assay results published in IntAct's records for PubMed 19513235.

B1: Mitogen-activated protein kinase kinase 9 (Arabidopsis thaliana (Mouse-ear cress)), Q9FX43 (parent)
chain: MALVRERRQLNLRLPLPPISDRRFSTSSSSATTTTVAGCNGISACDLEKLNVLGCGNGGIVYKVRHKTTSEIYALKTVNGDMDPIFTRQLMREMEILRRTDSPYVVKCHGIFEKPVVGEVSILMEYMDGGTLESLRGGVTEQKLAGFAKQILKGLSYLHALKIVHRDIKPANLLLNSKNEVKIADFGVSKILVRSLDSCNSYVGTCAYMSPERFDSESSGGSSDIYAGDIWSFGLMMLELLVGHFPLLPPGQRPDWATLMCAVCFGEPPRAPEGCSEEFRSFVECCLRKDSSKRWTAPQLLAHPFLREDL
B2: Mitogen-activated protein kinase kinase 9 (Arabidopsis thaliana (Mouse-ear cress)), Q9FX43 (parent)
chain: B1 chain
partner: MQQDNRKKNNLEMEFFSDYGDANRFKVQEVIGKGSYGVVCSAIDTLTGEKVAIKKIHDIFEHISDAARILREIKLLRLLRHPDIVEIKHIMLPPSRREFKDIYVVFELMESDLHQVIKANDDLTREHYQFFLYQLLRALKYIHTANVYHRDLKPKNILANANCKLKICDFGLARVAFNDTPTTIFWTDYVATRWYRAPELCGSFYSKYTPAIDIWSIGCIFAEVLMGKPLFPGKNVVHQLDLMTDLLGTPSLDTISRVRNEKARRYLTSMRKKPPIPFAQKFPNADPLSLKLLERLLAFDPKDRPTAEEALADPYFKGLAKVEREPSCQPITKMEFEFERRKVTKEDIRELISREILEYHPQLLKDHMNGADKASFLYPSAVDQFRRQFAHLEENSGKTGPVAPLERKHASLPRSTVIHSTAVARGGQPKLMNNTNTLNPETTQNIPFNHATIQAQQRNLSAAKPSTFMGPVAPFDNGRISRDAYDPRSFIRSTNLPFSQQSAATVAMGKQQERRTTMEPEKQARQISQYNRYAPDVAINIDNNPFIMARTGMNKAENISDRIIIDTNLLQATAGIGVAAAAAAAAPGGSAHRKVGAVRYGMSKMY

Variants of: B1
Details: with mpk6_arath MPK6, Q39026
Chain of mpk6_arath MPK6, Q39026 (Q39026 whole entry): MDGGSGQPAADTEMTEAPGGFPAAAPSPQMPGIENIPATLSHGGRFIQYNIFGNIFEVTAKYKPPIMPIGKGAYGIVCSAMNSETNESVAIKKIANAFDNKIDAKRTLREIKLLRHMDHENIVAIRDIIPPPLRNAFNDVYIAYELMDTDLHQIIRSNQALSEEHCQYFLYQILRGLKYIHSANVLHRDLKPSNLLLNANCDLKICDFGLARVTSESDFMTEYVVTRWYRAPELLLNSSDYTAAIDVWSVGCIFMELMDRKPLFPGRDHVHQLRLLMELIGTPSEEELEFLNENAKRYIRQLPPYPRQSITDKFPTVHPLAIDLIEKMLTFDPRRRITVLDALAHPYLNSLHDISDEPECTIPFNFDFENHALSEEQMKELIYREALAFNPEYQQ

| Variant | effect of a mutation on the interaction |
| --- | --- |
| MALVRERRQLNLRLPLPPISDRRFSTSSSSATTTTVAGCNGISACDLEKLNVLGCGNGGIVYKVRHKTTSEIYALKTVNGDMDPIFTRQLMREMEILRRTDSPYVVKCHGIFEKPVVGEVSILMEYMDGGTLESLRGGVTEQKLAGFAKQILKGLSYLHALKIVHRDIKPANLLLNSKNEVKIADFGVSKILVRSLDSCNEYVGTCAYMSPERFDSESSGGSSDIYAGDIWSFGLMMLELLVGHFPLLPPGQRPDWATLMCAVCFGEPPRAPEGCSEEFRSFVECCLRKDSSKRWTAPQLLAHPFLREDL [S201E] | increasing interaction |

Variants of: B1
Details: with mpk10_arath MPK10, Q9M1Z5
Chain of mpk10_arath MPK10, Q9M1Z5 (Q9M1Z5 whole entry): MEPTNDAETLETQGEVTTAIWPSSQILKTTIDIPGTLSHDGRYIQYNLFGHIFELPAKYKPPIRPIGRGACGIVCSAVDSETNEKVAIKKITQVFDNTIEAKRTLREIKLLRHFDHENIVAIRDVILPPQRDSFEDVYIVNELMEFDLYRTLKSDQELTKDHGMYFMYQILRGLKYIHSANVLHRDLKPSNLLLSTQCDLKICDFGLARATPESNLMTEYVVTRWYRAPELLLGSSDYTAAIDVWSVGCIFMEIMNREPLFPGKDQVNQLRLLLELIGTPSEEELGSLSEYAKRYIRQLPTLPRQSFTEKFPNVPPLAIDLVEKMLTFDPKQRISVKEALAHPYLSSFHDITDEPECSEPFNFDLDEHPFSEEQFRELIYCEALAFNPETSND

| Variant | effect of a mutation on the interaction |
| --- | --- |
| MALVRERRQLNLRLPLPPISDRRFSTSSSSATTTTVAGCNGISACDLEKLNVLGCGNGGIVYKVRHKTTSEIYALKTVNGDMDPIFTRQLMREMEILRRTDSPYVVKCHGIFEKPVVGEVSILMEYMDGGTLESLRGGVTEQKLAGFAKQILKGLSYLHALKIVHRDIKPANLLLNSKNEVKIADFGVSKILVRSLDSCNEYVGTCAYMSPERFDSESSGGSSDIYAGDIWSFGLMMLELLVGHFPLLPPGQRPDWATLMCAVCFGEPPRAPEGCSEEFRSFVECCLRKDSSKRWTAPQLLAHPFLREDL [S201E] | increasing interaction |

Variants of: B2
Details: with mpk20_arath MPK20, Q9SJG9

| Variant | effect of a mutation on the interaction |
| --- | --- |
| MALVRERRQLNLRLPLPPISDRRFSTSSSSATTTTVAGCNGISACDLEKLNVLGCGNGGIVYKVRHKTTSEIYALKTVNGDMDPIFTRQLMREMEILRRTDSPYVVKCHGIFEKPVVGEVSILMEYMDGGTLESLRGGVTEQKLAGFAKQILKGLSYLHALKIVHRDIKPANLLLNSKNEVKIADFGVSKILVRSLDSCNEYVGTCAYMSPERFDSESSGGSSDIYAGDIWSFGLMMLELLVGHFPLLPPGQRPDWATLMCAVCFGEPPRAPEGCSEEFRSFVECCLRKDSSKRWTAPQLLAHPFLREDL [S201E] | increasing interaction |
| MALVRERRQLNLRLPLPPISDRRFSTSSSSATTTTVAGCNGISACDLEKLNVLGCGNGGIVYKVRHKTTSEIYALKTVNGDMDPIFTRQLMREMEILRRTDSPYVVKCHGIFEKPVVGEVSILMEYMDGGTLESLRGGVTEQKLAGFAKQILKGLSYLHALKIVHRDIKPANLLLNSKNEVKIADFGVSKILVRELDSCNSYVGTCAYMSPERFDSESSGGSSDIYAGDIWSFGLMMLELLVGHFPLLPPGQRPDWATLMCAVCFGEPPRAPEGCSEEFRSFVECCLRKDSSKRWTAPQLLAHPFLREDL [S195E] | increasing interaction |
